Columns and labels:
[1] = system: NKX2-1+ lung epithelial progenitor cells; test: SFTPCtdTomato reporter induction in day 15 NKX2-1+ progenitor outgrowth in 3D culture (flow cytometry); format: cell-based, human; settings: for further SFTPC induction efficiency with addition of the factor: factor added to differentiation media, FIG. 9B
Description: Purification of NKX2-1+ Lung Progenitors by Cell Sorting. On day 15 of differentiation, cells were incubated at 37° C. in 0.05% trypsin-EDTA (Invitrogen) for 7-15 minutes, until they reached single cell suspension. Cells were then washed in media containing 10% fetal bovine serum (FBS, ThermoFisher), centrifuged at 300g×5 minutes, and resuspended in sort buffer containing Hank's Balanced Salt Solution (ThermoFisher), 2% FBS, 10 μM Y-27632, and 10 uM calcein blue AM (Life Technologies) for dead cell exclusion. Cells not containing the NKX2-1GFP reporter were subsequently stained with CD47-PerCPCy5.5 and CD26-PE antibodies (mouse monoclonal; Biolegend 1:200; 1×10^6 cells in 100 ul) for 30 minutes at 4° C., washed with PBS, and resuspended in sort buffer. Cells were passed through a 40 um strainer prior to sorting (Falcon). Various live cell populations indicated in the text (i.e. GFP+, GFP−, CD47hi/CD26−,CD47lo) were sorted on a high-speed cell sorter (MoFlo Legacy). Directed Differentiation of NKX2-1+ Lung Progenitor Outgrowth into iAEC2s Day 15 cells, either sorted (as described above) or unsorted (dissociated as described above), were resuspended in undiluted growth factor-reduced matrigel (Corning) at a dilution of 50-100 cells/ul, with droplets ranging in size from 20 ul in 96 well plates to 1 ml in 10 cm tissue culture-treated dishes (Corning). Cells in matrigel suspension were incubated at 37° C. for 20-30 minutes, then warm media was added to the plates.
(§1) Where indicated in the text, outgrowth and distal/alveolar differentiation of cells after day 15 was performed in “CK+DCI” medium, consisting of cSFDM base, with 3 μM CHIR99021, 10 ng/mL rhKGF, and 50 nM dexamethasone (Sigma), 0.1 mM 8-Bromoadenosine 3′,5′-cyclic monophosphate sodium salt (Sigma) and 0.1 mM 3-Isobutyl-1-methylxanthine (IBMX) (Sigma) (DCI). Immediately after replating cells on Day 15 10 μM Y-27632 was added to the medium for 24 hours. Additional growth factors or cytokines were added or withdrawn as indicated in the text, including FGF10, TGFb, EGF, OSM (20 ng/ml), TNFa (10 ng/ml), and IL-1b (10 ng/ml) with other concentrations listed in figure legends (FIGS. 9A, 9B).
Alveolosphere Long Term Culture, Dissociation, and Differentiation. […] These spheres were analyzed as follows: Z-stack images of live alveolospheres were taken and processed on a Keyence (Osaka, Japan) BZ-X700 fluorescence microscope. […] To generate single cell suspensions, cell pellets were incubated in 0.05% trypsin and continued through the trypsin-based dissociation protocol described above, after which they could be passaged into fresh matrigel, analyzed by flow cytometry, or sorted as described above. […]

JAK/STAT3 pathway = test: Cytokine stimulation of PSC-derived alveolospheres, JAK/STAT3 pathway (Western blot phospho-STAT3, SOCS3 RT-qPCR); format: cell-based, human; settings: OSM 20 ng/ml
Description: as §1
Reverse Transcriptase Quantitative Real Time Polymerase Chain Reaction (RT-qPCR). RT-qPCR was performed as previously described (Hawkins et al. 2017,). Briefly, RNA was isolated according to manufacturer's instructions using the Qiagen miRNeasy mini kit (Qiagen, Venlo, Netherlands). cDNA was generated by reverse transcription of up to 150 ng RNA from each sample using the Applied Biosystems High-Capacity cDNA Reverse Transcription Kit. […] Relative gene expression was calculated based on the average cycle (Ct) value of the technical triplicates, normalized to 18S control, and reported as fold change (2(−ΔΔCT)), with a fold change of 1 being assigned to undifferentiated (day 0) iPSCs or ESCs. […]

B1: FGF10: Recombinant human FGF10 (protein, UniProt O15520 38-208, looked up)
Fibroblast growth factor 10: QALGQDMVSPEATNSSSSSFSSPSSAGRHVRSYNHLQGDVRWRKLFSFTKYFLKIEKNGKVSGTKKENCPYSILEITSVEIGVVAVKAINSNYYLAMNKKGKLYGSKEFNNDCKLKERIEENGYNTYASFNWQHNGRQMYVALNGKGAPRRGQKTRRKNTSAHFLPMVVHS
further SFTPC induction efficiency with addition of the factor [1]: No consistent further SFTPC induction efficiency

B2: BMP4: recombinant human BMP4 (protein, UniProt P12644 293-408, looked up)
Bone morphogenetic protein 4: SPKHHSQRARKKNKNCRRHSLYVDFSDVGWNDWIVAPPGYQAFYCHGDCPFPLADHLNSTNHAIVQTLVNSVNSSIPKACCVPTELSAISMLYLDEYDKVVLKNYQEMVVEGCGCR
further SFTPC induction efficiency with addition of the factor [1]: No consistent further SFTPC induction efficiency

B3: KGF: Recombinant human KGF, agonist of FGF signaling (protein, UniProt P21781 32-194, looked up)
Fibroblast growth factor 7: CNDMTPEQMATNVNCSSPERHTRSYDYMEGGDIRVRRLFCRTQWYLRIDKRGKVKGTQEMKNNYNIMEIRTVAVGIVAIKGVESEFYLAMNKEGKLYAKKECNEDCNFKELILENHYNTYASAKWTHNGGEMFVALNQKGIPVRGKKTKKEQKTAHFLPMAIT
need for initial induction of the tdTomato reporter ([1]; component removed from media, FIG. 9A, 9B): dispensable | promoting outgrowth of tdTomato+ cells by day 21, combined with CHIR, compared to FGF10+CHIR ([1]; day 21, FIG. 9B): more consistent

B4: OSM: Recombinant human OSM, cytokine activating the JAK/STAT3 pathway (protein, UniProt P13725 26-221, looked up)
Oncostatin-M: AAIGSCSKEYRVLLGQLQKQTDLMQDTSRLLDPYIRIQGLDVPKLREHCRERPGAFPSEETLRGLGRRGFLQTLNATLGCVLHRLADLEQRLPKAQDLERSGLNIEDLEKLQMARPNILGLRNNIYCMAQLLDNSDTAEPTKAGRGASQPPTPTPASDAFQRKLEGCRFLHGYHRFMHSVGRVFSKWGESPNRSRR
STAT3 signaling (phosphorylated STAT3 protein, SOCS3 mRNA) (JAK/STAT3 pathway): significant and rapid activation of STAT3 signaling
